The values that follow are results of earlier work, collected in paper PMC5135002.

For this data set, the target named is CYLD USP (Homo sapiens) (UniProt Q9NQC7).
Chain of UniProt Q9NQC7 (Q9NQC7 589-953): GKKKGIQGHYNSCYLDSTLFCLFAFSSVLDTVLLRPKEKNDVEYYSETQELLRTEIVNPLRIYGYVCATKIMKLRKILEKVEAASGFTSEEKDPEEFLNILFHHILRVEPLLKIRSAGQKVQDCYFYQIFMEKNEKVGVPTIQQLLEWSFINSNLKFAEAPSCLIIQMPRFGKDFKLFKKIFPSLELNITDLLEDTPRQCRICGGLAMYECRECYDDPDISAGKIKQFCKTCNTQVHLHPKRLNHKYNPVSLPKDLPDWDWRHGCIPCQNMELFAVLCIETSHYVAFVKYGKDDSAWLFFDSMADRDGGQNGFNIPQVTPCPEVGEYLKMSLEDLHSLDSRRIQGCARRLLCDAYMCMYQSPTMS

Consider SPATA2 PUB (from UniProt Q9UM82), for which the Kd – broadly, a measure of binding affinity in units of concentration – was 0.01 µM.
